The values below come from the RNAGym collection of RNA variant scans (doi:10.7554/elife.90254).

B1: LINE1-full (parent)
chain: UACGUAGGUGGUUUUCCCCUGAUAGUGCUAAGGGGGCCUGGAAGUUUGGACUGGGCAGAGCUCAACACAGCGUGGCAAAGUGGCUGUGGCUAGACUGCCUCUCUGGAUUCCUCGUCACUCAGCAGGGCAUCUCUGAGAGAAAUGCC

The variants in the data set derive from B1. Put plainly: self-cleavage, relative activity (ratio to wild type); higher = more cleavage; in vitro, sequencing; the parent is a self-cleaving ribozyme.
UACGUAGGUGGUUUACCCCUGAUAGAGCUAAGGGGGCCUGGAAGUUUGGACUGGGCAGAGCUCAACACAGCGUGGCAAAGUGGCUGUGGCUAGACUGCCUCUCUGGAUUCCUCGUCACUCAGCAGGGCAUCUCUGAGAGAAAUGCC [U15A U26A]: the self-cleavage amounted to 0.5.

Turning to UACGUAGGUGGUUUACCCCUGAUAGUGCUAAGGGGGCCUGGAAGUUUGGACUGGGCAGAGCUCAACACAGCGUGGCAAAGUGGCUGUGGCUAGAUUGCCUCUCUGGAUUCCUCGUCACUCAGCAGGGCAUCUCUGAGAGAAAUGCC [U15A C95U], the self-cleavage worked out at 0.41.

Regarding UACGUAGGUGGUUUACCCCUGAUAGUGCUAAGGGGGCCUGGAAGUUUGGACUGGGCAGAGCUCAACACAGCGUGGCAAAGUGGCUGUGGCUAGACUGCCUCUCUGGAUUCCUCGUCACUCAGCAGGGCAUCUCUGAGAGAACUGCC [U15A A142C], the self-cleavage came to 1.71.

In the case of UACGUAGGUGGUUUACCCCUGAUAGUGCUAAGGGGGCCUGGAAAUUUGGACUGGGCAGAGCUCAACACAGCGUGGCAAAGUGGCUGUGGCUAGACUGCCUCUCUGGAUUCCUCGUCACUCAGCAGGGCAUCUCUGAGAGAAAUGCC [U15A G44A], the self-cleavage amounted to 1.32.

UACGUAGGUGGUUUACCCCUGAUAGUGCUAAGGGGGCCUGGAAGUUUGGACUGGGCAGAGCUCAACACAGCGUGGCAAAGUGGCUGUGGCUAGACUGCCUCUCUGGAUUCCUCGUCACUCAGCAUGGCAUCUCUGAGAGAAAUGCC [U15A G125U]: the self-cleavage came to 0.89.

As to UACGUAGGUGGUUUACCCCUGAAAGUGCUAAGGGGGCCUGGAAGUUUGGACUGGGCAGAGCUCAACACAGCGUGGCAAAGUGGCUGUGGCUAGACUGCCUCUCUGGAUUCCUCGUCACUCAGCAGGGCAUCUCUGAGAGAAAUGCC [U15A U23A], the self-cleavage turned out to be 0.76.

On to UACGUAGGUGGUUUACCCCUGACAGUGCUAAGGGGGCCUGGAAGUUUGGACUGGGCAGAGCUCAACACAGCGUGGCAAAGUGGCUGUGGCUAGACUGCCUCUCUGGAUUCCUCGUCACUCAGCAGGGCAUCUCUGAGAGAAAUGCC [U15A U23C], for which the self-cleavage came out at 1.17.

In the case of UACGUAGGUGGUUUACCCCUGAUAGUGCUAAGGGGGCCUGGAAGUUUGGACUGGGCAGAGCUCAACACAGCGCGGCAAAGUGGCUGUGGCUAGACUGCCUCUCUGGAUUCCUCGUCACUCAGCAGGGCAUCUCUGAGAGAAAUGCC [U15A U73C], the self-cleavage came out at 1.06.

For UACGUAGGUGGUUUACCCCUGAUAGUGAUAAGGGGGCCUGGAAGUUUGGACUGGGCAGAGCUCAACACAGCGUGGCAAAGUGGCUGUGGCUAGACUGCCUCUCUGGAUUCCUCGUCACUCAGCAGGGCAUCUCUGAGAGAAAUGCC [U15A C28A], the self-cleavage is 1.16.

On to UACGUAGGUGGUUUACCCCUGAUAGUGCUAAGGGGGCAUGGAAGUUUGGACUGGGCAGAGCUCAACACAGCGUGGCAAAGUGGCUGUGGCUAGACUGCCUCUCUGGAUUCCUCGUCACUCAGCAGGGCAUCUCUGAGAGAAAUGCC [U15A C38A], for which the self-cleavage is 0.77.

For UACGUAGGUGGUUUACCCCUGAUAGUGCUAAGGGGGCCUGGAAGUUUGGACUGGGCAGAGCUCAACACAGCGUGGCAAAGUGGUUGUGGCUAGACUGCCUCUCUGGAUUCCUCGUCACUCAGCAGGGCAUCUCUGAGAGAAAUGCC [U15A C84U], the self-cleavage is 0.08.

Take UACGUAGGUGGUUUACCCCUGAUAGUGCUAAGGGGGCCUGGAAGUUUGAACUGGGCAGAGCUCAACACAGCGUGGCAAAGUGGCUGUGGCUAGACUGCCUCUCUGGAUUCCUCGUCACUCAGCAGGGCAUCUCUGAGAGAAAUGCC [U15A G49A]: the self-cleavage is 0.74.

Regarding UACGUAGGUGGUUUACCCCUGAUAGUGCAAAGGGGGCCUGGAAGUUUGGACUGGGCAGAGCUCAACACAGCGUGGCAAAGUGGCUGUGGCUAGACUGCCUCUCUGGAUUCCUCGUCACUCAGCAGGGCAUCUCUGAGAGAAAUGCC [U15A U29A], the self-cleavage turned out to be 0.38.

Regarding UACGUAGGUGGUUUACCCUUGAUAGUGCUAAGGGGGCCUGGAAGUUUGGACUGGGCAGAGCUCAACACAGCGUGGCAAAGUGGCUGUGGCUAGACUGCCUCUCUGGAUUCCUCGUCACUCAGCAGGGCAUCUCUGAGAGAAAUGCC [U15A C19U], the self-cleavage amounted to 0.93.

Take UACGUAGGUGGUUUACCCAUGAUAGUGCUAAGGGGGCCUGGAAGUUUGGACUGGGCAGAGCUCAACACAGCGUGGCAAAGUGGCUGUGGCUAGACUGCCUCUCUGGAUUCCUCGUCACUCAGCAGGGCAUCUCUGAGAGAAAUGCC [U15A C19A]: the self-cleavage came out at 0.79.

For the variant UACGUAGGUGGUUUACCCCUGAUAGUGCUAAGGGGGCCUGGAAGUUUGGACUGGGCAGAGCUCAACACAGCGUGGCAAAGUGGCUGUGGCUAGACUGCCUCUCUGGAUUCCUCGUCACUCAGCAGGUCAUCUCUGAGAGAAAUGCC [U15A G127U], the self-cleavage amounted to 1.87.

On to UACGUAGGUGGUUUACCCCUGAUAGUGCUAAGGGGGCCUGGAAGUUUGGACUGGGCAGAGCACAACACAGCGUGGCAAAGUGGCUGUGGCUAGACUGCCUCUCUGGAUUCCUCGUCACUCAGCAGGGCAUCUCUGAGAGAAAUGCC [U15A U62A], for which the self-cleavage amounted to 0.04.

Take UACGUAGGUGGUUUACCCCUGAUAGUGCUAAGGGGGCCUGGAAGUUUGGACUGGGCAGAGCUCAACACAGCGUGGCAAAGUGGCUGUGGCUAGACUGCCUCUCUGGAUUCCUCGUCAUUCAGCAGGGCAUCUCUGAGAGAAAUGCC [U15A C118U]: the self-cleavage is 0.49.

For UACGUAGGUGGUUUACCCCUGAUAGUGCUAAGGGGGCCUGGAAGUUUGGACUGGGCAGAGCUCAACACAGCGUGGCAAAGUGGCAGUGGCUAGACUGCCUCUCUGGAUUCCUCGUCACUCAGCAGGGCAUCUCUGAGAGAAAUGCC [U15A U85A], the self-cleavage was determined as 0.11.

For UACGUAGGUGGUUUACCCCUGAUAGUGCUAAGGGGGCCAGGAAGUUUGGACUGGGCAGAGCUCAACACAGCGUGGCAAAGUGGCUGUGGCUAGACUGCCUCUCUGGAUUCCUCGUCACUCAGCAGGGCAUCUCUGAGAGAAAUGCC [U15A U39A], the self-cleavage was determined as 0.85.

With UACGUAGGUGGUUUACCCCUGAUAGUGCUAAGGGGGCCUGGAAGUUUGGACUGGGCAGAGCUCAACACAGCGUGGCAAAGUGGCUGUGGCUAGACUGCCUCUCUGGAUUCCUCGUCACUCAGCAGGGCAUCUUUGAGAGAAAUGCC [U15A C133U], the self-cleavage was 1.31.

Consider UACGUAGGUGGUUUACCCCUGAUAGUGCUAAGGGGGCCUGGAAGUUUGGACUGGGCAGAGCUCAACACAGCGUGGCAAAGUGGCUGUGGCUAGACUGCCUCUCUGGAUUCCUCGUCACUCAGGAGGGCAUCUCUGAGAGAAAUGCC [U15A C123G], for which the self-cleavage is 0.92.

With UACGUAGGUGGUUUACCCCUGAUAGUGCUAAGGGGGCCUGGAAGUUUGGACUGGGCAGAGCUCAACACAGCGUGGCAAAGUGGCUGUGGCUAGACUGCCUCUCUGGAUUCUUCGUCACUCAGCAGGGCAUCUCUGAGAGAAAUGCC [U15A C111U], the self-cleavage amounted to 1.37.

For the variant UACGUAGGUGGUUUACCCCCGAUAGUGCUAAGGGGGCCUGGAAGUUUGGACUGGGCAGAGCUCAACACAGCGUGGCAAAGUGGCUGUGGCUAGACUGCCUCUCUGGAUUCCUCGUCACUCAGCAGGGCAUCUCUGAGAGAAAUGCC [U15A U20C], the self-cleavage was found to be 1.31.

As to UACGUAGGUGGUUUACCCCUGAUAGUGCUAAGGGGGCCUGGAAGUCUGGACUGGGCAGAGCUCAACACAGCGUGGCAAAGUGGCUGUGGCUAGACUGCCUCUCUGGAUUCCUCGUCACUCAGCAGGGCAUCUCUGAGAGAAAUGCC [U15A U46C], the self-cleavage was 0.76.

In the case of UACGUAGGUGGUUUACCCCUGAUAGUGCUAAGGGGGCCUGGAAGUAUGGACUGGGCAGAGCUCAACACAGCGUGGCAAAGUGGCUGUGGCUAGACUGCCUCUCUGGAUUCCUCGUCACUCAGCAGGGCAUCUCUGAGAGAAAUGCC [U15A U46A], the self-cleavage came out at 0.71.

Take UACGUAGGUGGUUUACCCCUGAUAGUGCUAAGGGGGCCUGGAAGUUUGGACUGGGCAGAGCUCAACACAGCGUGGCAAAGUGGCUGUGGCUAGACUGCCUCUCUGGAUUCCUCGUCACUCAGCAGGGUAUCUCUGAGAGAAAUGCC [U15A C128U]: the self-cleavage was 0.76.

Consider UACGUAGGUGGUUUACCCCUGAUAGUGCUAAGGGCGCCUGGAAGUUUGGACUGGGCAGAGCUCAACACAGCGUGGCAAAGUGGCUGUGGCUAGACUGCCUCUCUGGAUUCCUCGUCACUCAGCAGGGCAUCUCUGAGAGAAAUGCC [U15A G35C], for which the self-cleavage turned out to be 1.26.

As to UACGUAGGUGGUUUACCCCUGAUAGUGCUAAGGGGGCCUGGAAGUUUGGACUGGGCAGAGCUCAACACAGCGUGGCAAAGCGGCUGUGGCUAGACUGCCUCUCUGGAUUCCUCGUCACUCAGCAGGGCAUCUCUGAGAGAAAUGCC [U15A U81C], the self-cleavage amounted to 1.14.

Regarding UACGUAGGUGGUUUACCCCUGAUAGUGCUAAGGGGGCCUGGAAGUUUGGACUGGGCAGAGCUCAACACAGCGUGGCAAAGAGGCUGUGGCUAGACUGCCUCUCUGGAUUCCUCGUCACUCAGCAGGGCAUCUCUGAGAGAAAUGCC [U15A U81A], the self-cleavage is 1.56.

On to UACGUAGGUGGUUUACCCCUGAUAGUGCUAAGGGGGCCUGGAAGCUUGGACUGGGCAGAGCUCAACACAGCGUGGCAAAGUGGCUGUGGCUAGACUGCCUCUCUGGAUUCCUCGUCACUCAGCAGGGCAUCUCUGAGAGAAAUGCC [U15A U45C], for which the self-cleavage is 0.66.

For UACGUAGGUGGUUUACCCCUGAUAGUGCUAAGGGGGCCUGGAAGUUUGGACUGGGCAGAGCUCAACACAGCGUGGCAAAGUGGCUGUGGCUAGACUGCCUCUCUGGAUUCCUCGUCACUCAGCAGGGCAUCUCUGAGAGAUAUGCC [U15A A141U], the self-cleavage stood at 1.07.

Regarding UACGUAGGUGGUUUACCCCUGAUAGUGCUAAGGGGGCCUGGAAGUUUGGACUGGGCAGAGCUCAACACAGCGUGGCAAAGUGGCUGUGGCUAGACUGCCUCUCUGGAUUACUCGUCACUCAGCAGGGCAUCUCUGAGAGAAAUGCC [U15A C110A], the self-cleavage was 1.16.

In the case of UACGUAGGUGGUUUACCCCUGAUAGUGCUAAGGGGUCCUGGAAGUUUGGACUGGGCAGAGCUCAACACAGCGUGGCAAAGUGGCUGUGGCUAGACUGCCUCUCUGGAUUCCUCGUCACUCAGCAGGGCAUCUCUGAGAGAAAUGCC [U15A G36U], the self-cleavage was 1.31.

For UACGUAGGUGGUUUACCCCUGAUAGUGCUAAGGGGGCCUGGAAGUUAGGACUGGGCAGAGCUCAACACAGCGUGGCAAAGUGGCUGUGGCUAGACUGCCUCUCUGGAUUCCUCGUCACUCAGCAGGGCAUCUCUGAGAGAAAUGCC [U15A U47A], the self-cleavage is 0.76.

Take UACGUAGGUGGUUUACCCCUGAUAGUGCUAAGGGGGCCUGGAAGUUGGGACUGGGCAGAGCUCAACACAGCGUGGCAAAGUGGCUGUGGCUAGACUGCCUCUCUGGAUUCCUCGUCACUCAGCAGGGCAUCUCUGAGAGAAAUGCC [U15A U47G]: the self-cleavage worked out at 0.

For UACGUAGGUGGUUUACCCCUGAUAGUGCUAAGGGGGCCUGGAAGUUUGGACUGGGCAGAGCUCAACACAGCGUGGCAAAGUGGCUGUGGCUAGACUGCCUCUAUGGAUUCCUCGUCACUCAGCAGGGCAUCUCUGAGAGAAAUGCC [U15A C103A], the self-cleavage came out at 1.27.

UACGUAGGUGGUUUACCCCUGAUAGUGCUAAGGGGGCCUGGAAGUUUGGACUGGCCAGAGCUCAACACAGCGUGGCAAAGUGGCUGUGGCUAGACUGCCUCUCUGGAUUCCUCGUCACUCAGCAGGGCAUCUCUGAGAGAAAUGCC [U15A G55C]: the self-cleavage is 0.15.

Take UACGUAGGUGGUUUACCCCUGAUAGUGCUAAGGGGGCCUGGAAGUUUGGACUGGGCAGAGCUCAACACAGCGUGGCAAAGUGGCUAUGGCUAGACUGCCUCUCUGGAUUCCUCGUCACUCAGCAGGGCAUCUCUGAGAGAAAUGCC [U15A G86A]: the self-cleavage amounted to 0.07.
